Assay [1] deals with T1, mutant G12V KRAS (Homo sapiens, UniProt P01116, G12V).
T1 construct: host or cells: RASless mouse embryonic fibroblasts expressing a KRAS G12V transgene
The assay is described as follows: Cellular co-immunoprecipitation in KRAS G12V expressing RASless MEFs. As to conditions: 25 μM biotinylated pept-in, 16 hours. Type of assay: cell-based. The method, then:
(§1) FIG. 10 illustrates cellular co-immunoprecipitation assays showing target engagement by RAS-targeting molecules (‘pept-ins’) according to certain embodiments of the present invention. Cellular target engagement of biotinylated pept-ins was assessed using co-immunoprecipitation assay. KRAS wild-type or mutant G12V expressing RASless MEFs. […] The biotinylated versions of the G12V-selective pept-ins, however, show preferential binding to the G12V mutant KRAS protein.
(§2) Cellular co-immunoprecipitation assays were performed using either KRAS wild-type or mutant G12V expressing RASless MEFs (see elsewhere) or human NCI-H441 lung adenocarcinoma tumor cells and N-terminally biotinylated pept-ins. Cells were seeded at a density of 300,000 cells in a clear 6-well plate (Cellstar, Greiner). […] Next, cells were lysed with NP-40 lysis buffer (150 mM NaCl, 50 mM Tris HCl pH8, 1% IGEPAL (NP40), 1× Halt phosphatase/protease inhibitors (Thermo), 1 U/μl Universal Nuclease (Pierce)) and biotinylated pept-ins were captured with streptavidin-coated magnetic beads (Pierce) during 1 hours at room temperature. Beads were washed with NP40 lysis buffer at least 3 times, after which bound proteins were boiled off in 1×SDS loading dye (Bio-Rad) in NP40 lysis buffer. […]

In assay [2] the target is T2, KRAS G12D mutant (Homo sapiens, UniProt P01116, G12D).
T2 construct: made in house; host or cells: cell-free: PURExpress In Vitro Protein Synthesis Kit (New England Biolabs), linear T7 DNA template
The assay can be described thus: In vitro translation assay with streptavidin pull-down, KRAS G12D. Conditions: 10 μM biotinylated pept-in, Western blot. Type of assay: binding. From the text:
(§3) FIG. 5 illustrates in vitro translation assay showing target selectivity of RAS-targeting molecules (‘pept-ins’) according to certain embodiments of the present invention. In vitro translation assay producing either wild-type or different mutant KRAS in the presence of biotinylated RAS-targeting pept-ins. Streptavidin pull-down was used to capture the biotinylated pept-ins from the translation reaction and pulled-down fraction was probed for KRAS using Western blot. The biotinylated version of pept-in 04-004-N001, i.e. 04-004-N011, which harbours an APR window sequence derived from a wild-type APR, would be predicted to target all RAS proteins independently from their mutation status. […]
(§4) In vitro translation assays were performed using the PURExpress® In Vitro Protein Synthesis Kit (New England Biolabs) according to the manufacturer's instructions. […] Proteins were resolved using Any kD 15-well Mini-PROTEAN gels (Bio-Rad) during SDS-PAGE and probed for KRAS after Western blotting using a mouse monoclonal KRAS-specific antibody (SC-30, Santa Cruz Biotechnology), which was detected with an HRP-coupled anti-mouse secondary antibody using chemiluminescence on a Bio-Rad Chemidoc MP imaging instrument. […]

Assay [3] has as its target T3, KRAS G13D mutant (Homo sapiens, UniProt P01116, G13D).
T3 construct: made in house; host or cells: cell-free: PURExpress In Vitro Protein Synthesis Kit (New England Biolabs), linear T7 DNA template
The assay can be described thus: In vitro translation assay with streptavidin pull-down, KRAS G13D. Type of assay: binding. As to conditions: 10 μM biotinylated pept-in, Western blot.
From the text: as §3, §4

Assay [4] concerns the target T4, G12C mutant KRAS (Homo sapiens, UniProt P01116, G12C).
T4 construct: made in house; host or cells: cell-free: PURExpress In Vitro Protein Synthesis Kit (New England Biolabs), linear T7 DNA template
The assay can be described thus: In vitro translation assay with streptavidin pull-down, KRAS G12C. Conditions: 10 μM biotinylated pept-in, Western blot. The class given is binding.
From the text: as §3, §4

The target in assay [5] is T5, G12V mutant KRAS (Homo sapiens, UniProt P01116, G12V).
T5 construct: made in house; host or cells: cell-free: PURExpress In Vitro Protein Synthesis Kit (New England Biolabs), linear T7 DNA template
The assay is described as follows: In vitro translation assay with streptavidin pull-down, KRAS G12V. The class given is binding. As to conditions: 10 μM biotinylated pept-in, Western blot. The text has this:
FIG. 5 illustrates in vitro translation assay showing target selectivity of RAS-targeting molecules (‘pept-ins’) according to certain embodiments of the present invention. In vitro translation assay producing either wild-type or different mutant KRAS in the presence of biotinylated RAS-targeting pept-ins. Streptavidin pull-down was used to capture the biotinylated pept-ins from the translation reaction and pulled-down fraction was probed for KRAS using Western blot. The biotinylated version of pept-in 04-004-N001, i.e. 04-004-N011, which harbours an APR window sequence derived from a wild-type APR, would be predicted to target all RAS proteins independently from their mutation status. […] Using the biotinylated versions of the biologically active pept-ins harbouring an APR window containing the G12V mutant site (04-006-N007, 04-015-N026 and 04-033-N003), however, pull-down was only observed for the G12V mutant KRAS and, in the case of 04-015-N026, for G12C mutant KRAS.
In vitro translation assays were performed using the PURExpress® In Vitro Protein Synthesis Kit (New England Biolabs) according to the manufacturer's instructions. Briefly, linear DNA fragments containing T7 promotor and terminator sequences flanking the KRAS coding sequence were generated using PCR and purified using the MinElute PCR Purification Kit (Qiagen). 250 ng of linear DNA was subsequently used for the in vitro translation reaction, which was performed for 2 hours at 37° C. with shaking (1000 rpm). Indicated biotinylated pept-ins were mixed in the translation reactions from a 5 mM stock solution in 6M Urea to a final concentration of 10 μM. Upon completion of the translation reaction, biotinylated pept-ins were captured from the reaction mix using Streptavidin coated beads (Pierce) during 90 min at room temperature. Beads were next washed with TBS containing 0.1% Tween 20 and bound proteins were finally boiled off in 1×SDS loading dye (Bio-Rad) in TBS buffer. Proteins were resolved using Any kD 15-well Mini-PROTEAN gels (Bio-Rad) during SDS-PAGE and probed for KRAS after Western blotting using a mouse monoclonal KRAS-specific antibody (SC-30, Santa Cruz Biotechnology), which was detected with an HRP-coupled anti-mouse secondary antibody using chemiluminescence on a Bio-Rad Chemidoc MP imaging instrument.
To mimic this in vitro, we devised an in vitro translation setup producing either wild-type or mutant (G12V, G12C, G12D or G13D) KRAS in the presence of biotinylated RAS-targeting pept-ins. This allowed us to perform a streptavidin pull-down to capture the biotinylated pept-ins from the translation reaction and perform SDS-PAGE and Western blotting to probe the pulled-down fraction for the presence of KRAS. […]

In assay [6] the target is T6, wild-type KRAS (Homo sapiens, UniProt P01116).
T6 construct: host or cells: RASless mouse embryonic fibroblasts expressing a KRAS transgene
The assay can be described thus: Cellular co-immunoprecipitation in KRAS wild-type expressing RASless MEFs. Conditions: 25 μM biotinylated pept-in, 16 hours. Type of assay: cell-based. The method, then:
as §1, §2

Assay [7] addresses T7, KRAS wild-type (Homo sapiens, UniProt P01116).
T7 construct: made in house; host or cells: cell-free: PURExpress In Vitro Protein Synthesis Kit (New England Biolabs), linear T7 DNA template
The assay is described as follows: In vitro translation assay with streptavidin pull-down, KRAS wild-type. Type of assay: binding. As to conditions: 10 μM biotinylated pept-in, Western blot.
From the text: as §3, §4

Assay [8] has as its system RASless MEFs expressing KRAS WT. The assay can be described thus: RASless MEF spheroid efficacy, KRAS WT expressing MEFs. The class given is cell-based, mouse. Conditions: spheroids, 5 days of exposure. The method, then:
(§5) FIG. 9 illustrates mutant-selective cellular efficacy using the RASless MEF panel. Graph showing mean±SD as well as individual assay IC50s from at least three independent experiments assessing the efficacy of the indicated RAS-target pept-ins on a panel of RASless MEFs, expressing either wild-type (WT), mutant G12V or G12C KRAS, or a V600E mutant BRAF in absence of endogenous K-, H-, and NRAS.
(§6) For the single-dose viability screen on spheroid cultures, 1000 cells were seeded per well in black Ultra-Low Attachment (ULA) round-bottom 96-well plates (Corning) in […] full growth medium. […] Technical duplicates were included for all experimental pept-in conditions 5 days after treatment viability was assessed using the CellTiter Glo 3D reagent (Promega) according to the manufacturer's instructions, with the following adaptation: 80 μL of reagent was added per well. Readout was performed on a Clariostar plate reader (BMG). […]
(§7) RAS mutant-selectivity on cellular efficacy was assessed using the isogenic RASless mouse embryonic fibroblast (MEF) panel. […] The panel assessed included the common clinical KRAS variants expressed as transgene (WT, G12V and G12C) and an additional cell line dependent on the expression of BRAF V600E for proliferation.
(§8) Efficacy of RAS-targeting pept-ins on MEFs growing as spheroids was assessed after 5 days of exposure. […]

Assay [9] deals with RASless MEFs expressing KRAS G12C. The assay can be described thus: RASless MEF spheroid efficacy, KRAS G12C expressing MEFs. The class given is cell-based, mouse. As to conditions: spheroids, 5 days of exposure. The method, then: as §5, §6, §7, §8
Assay [10] deals with SW620 xenograft of human KRAS G12V mutant colorectal cancer. The assay is described as follows: In vivo SW620 xenograft model. Set-up: species or system Female NCr nu/nu mice. The method, then: FIG. 12 illustrates that RAS-targeting pept-ins reduce tumor growth in a xenograft model of KRAS G12V mutant cancer. […] Pept-ins were dosed 3 times per week by intratumoral injection at either 20 or 200 μg once the tumors reached 100-150 mm^3. Model response was monitored by a positive control group receiving Irinotecan at 100 mg/kg, once per week for 3 weeks. Group sizes were N=6 for the non-treated group, N=5 for the vehicle groups and N=8 for the pept-in and positive control groups. Graphs show box plots of tumor volumes at day 22 after treatment started.
Female NCr nu/nu mice (8 to 12 weeks) were inoculated with 1×10^6 SW620 tumor cells in 50% Matrigel subcutaneously in the hind flank. The cell Injection Volume was 0.1 mL/mouse. When tumors reached an average size of 100-150 mm^3 a pair match was performed, and treatment started. Group sizes were N=6 for the non-treated group, N=5 for the vehicle groups and N=8 for the pept-in and positive control groups. Tumor growth was monitored by caliper measurement twice per week. Model response was monitored by Irinotecan dosed once per week at 100 mg/kg intraperitoneally for 3 weeks.
To assess whether the RAS-targeting pept-ins are able to attenuate growth of KRAS G12V-driven tumors in vivo, a subcutaneous xenograft model of human KRAS G12V colorectal cancer (SW620) was used. Once the tumors reached 100-150 mm^3 in size, pept-ins were administered directly into the tumor mass by intratumoral injection three times per week during two weeks at two different doses (20 μg and 200 μg).

For assay [11], the system named is RASless MEFs expressing KRAS G12V. The assay can be described thus: RASless MEF spheroid efficacy, KRAS G12V expressing MEFs. As to conditions: spheroids, 5 days of exposure, compared to KRAS WT and G12C MEFs. Type of assay: cell-based, mouse. The method, then: as §5, §6, §7, §8
The target of assay [12] is KRAS G12V (human, UniProt P01116-2 1-188, limits assumed). The assay can be described thus: cell-based or functional assay.

Ends that are not written are not given here.

“04-004-N011: biotinylated version of pept-in 04-004-N001 (KLSVFAIKGSKLSVFAIK; also: biotinylated, site not given here)”: the “co-precipitation of mutant G12V KRAS” value in assay [1] was “precipitate both wild-type and mutant G12V KRAS well”. Besides, in assay [2], the “binding (pull-down) to KRAS G12D” value was “less efficient”. The “binding (pull-down) to KRAS G13D” value in assay [3] is given as “less efficient”. The “streptavidin pull-down of KRAS G12C” value in [4] is on record as “efficient pull-down”. Besides, the “streptavidin pull-down of KRAS G12V” value in assay [5] is recorded as “efficient pull-down”. For the same substance, the “co-precipitation of wild-type KRAS” value in assay [6] was “precipitate both wild-type and mutant G12V KRAS well”. For the same substance, the “streptavidin pull-down of KRAS wild-type” value in assay [7] is listed as “efficient pull-down”.
For “04-006-N007: biotinylated version of a biologically active pept-in harbouring an APR window containing the G12V mutant site (KVVVGAVKGSKVVVGAVK; also: biotinylated, site not given here)”, the “streptavidin pull-down of KRAS G12V” value in assay [5] is recorded as “notable pull-down”.
With “04-015-N026: biotinylated version of a biologically active pept-in harbouring an APR window containing the G12V mutant site (KVVVGAVGKGSKVVVGAVGK; also: biotinylated, site not given here)”, in [4], the “streptavidin pull-down of KRAS G12C” value is “notable pull-down”. Further, the “streptavidin pull-down of KRAS G12V” value in assay [5] is recorded as “notable pull-down”.
As to “04-033-N003: biotinylated version of a biologically active pept-in harbouring an APR window containing the G12V mutant site (KVVVGAVGVGKGSKVVVGAVGVGK; also: biotinylated, site not given here)”, the “streptavidin pull-down of KRAS G12V” value in assay [5] is “notable pull-down”.
For Ac-KLSVFAIKGSKLSVFAIK-NH2 [04-004-N001], in [8], the “efficacy on MEFs expressing KRAS WT” value is “responded similarly as the BRAF V600E expressing RASless MEFs”. Also, in [9], the “efficacy on MEFs expressing KRAS G12C” value is listed as “responded similarly as the BRAF V600E expressing RASless MEFs”. The “average tumor volume at day 22 after treatment started” value in assay [10] (20 μg intratumoral injection three times per week) and in [10] (200 μg intratumoral injection three times per week) was “only significant for the 200 μg dosing group” in each case. For the same substance, the “efficacy on MEFs expressing KRAS G12V” value in assay [11] is reported as “notable increased efficacy”.
Substance SAH-SOS-1A (peptide) returned an IC50 on viability of adherent NCI-H441 cells after 4 days exposure in assay [12] of 15 µM.
